# Measured values: patent publication US20120328625A1 (AstraZeneca / MedImmune, published 2012)
# How the values were obtained:
# [1] = molecular target: T1, Recombinant Human/Mouse Indian Hedgehog C28II, amino terminal peptide (R&D Systems cat#1705-HH/CF) (human/mouse (100% sequence identity in …, UniProt Q14623 28-202)); experiment: SPR (Biacore), IgG1 captured on protein G', human/mouse Ihh as analyte, 1:1 Langmuir
# T1 construct: domain: amino terminal peptide; bought; also called Human/mouse Ihh; Ihh-N C28II
# Source text: (§1) Protein G was coupled to the CM5 chip surface using standard amine linkage chemistry. Protein G′ was cleared of Tris using a Dulbecco's PBS equilibrated PD-10 column. […] Approximately 500 RUs of protein G were covalently bound to the surface of flow chamber 2 (Fc2). […] Immobilization levels were reproducible between cycles.
# [2] = molecular target: T2, Recombinant Human Sonic Hedgehog C24II amino terminal peptide (R&D Systems cat#1845-SH) (human, UniProt Q15465 24-197); experiment: SPR (Biacore), IgG1 captured on protein G', human Shh as analyte, 1:1 Langmuir
# T2 construct: domain: amino terminal peptide; bought; also called Shh-C24II; C24II peptide
# Source text: as §1
# [3] = molecular target: T1, Recombinant Human/Mouse Indian Hedgehog …; experiment: cell-based or functional assay
# [4] = molecular target: T3, Shh-N in conditioned medium (human, UniProt Q15465 24-197, N-terminal palmitoyl modification; lacks the C-terminal cholesterol moiety); experiment: cell-based or functional assay
# [5] = molecular target: T2, Recombinant Human Sonic Hedgehog C24II …; experiment: ELISA, apparent KD, purified antibody on immobilized Shh C24II
# Procedure: (§2) The binding of purified antibodies to recombinant human Shh was determined using an ELISA-based method. The N-terminal signaling domain of Shh, Shh-N, was presented in two forms: as a purified protein isolated from bacteria lacking lipid modifications and as a constituent of conditioned medium in a form that contains the N-terminal palmitoyl modification but lacks the C-terminal cholesterol moiety.
# (§3) The plates were sealed and placed on a shaker overnight at 5° C. The next day, the plates were washed 4 times with PBS with 0.05% Tween 20 (PBS-T). […] The plates were washed four times with PBS-T. Titrations of purified antibody (half log serial dilutions over at least six logs with a starting concentration of 30 μg/mL) were made in 100 μl PBS-T and added into wells and incubated with shaking overnight at 4° C. Antibody controls included human IgG2 and IgG4 (Sigma-Aldrich, Cat, #I5404 and #I4639, respectively). […] Following washing with PBS-T, the chemiluminescent Peroxidase substrate (Sigma cat# CPS-2-60) was added at room temperature and incubated for ten minutes with the plate covered by foil. Each well was read for 100 msec in the Spectromax 5e to determine RLU.
# [6] = molecular target: T1, Recombinant Human/Mouse Indian Hedgehog …; experiment: SPR (Biacore), IgG1 captured on protein G', Ihh as analyte
# Source text: as §1
# [7] = molecular target: T3, Shh-N in conditioned medium; experiment: ELISA, apparent KD, purified antibody on immobilized Shh-CM
# Procedure: as §2, §3
Kd [1],Kd [2],"IC50, inhibition of osteoblast differentiation of C3H10T1/2 cells induced by Ihh-N C28II (2 µg/ml) [3]","IC50, inhibition of osteoblast differentiation (alkaline phosphatase) of C3H10T1/2 cells [4]",Kd [5],binding result [6],Kd [7],Binder
34.2 pM,3 pM,16300 pM,–,–,–,–,"6D7OP (antibody, IgG1, V domains shown) VH: QVQLQESGPGLVKPSQTLSLTCTVSGGSINSGGFYWSWIRQHPGKGLEWIGSIYYSGNTYYNPSLKSRVTISVDTSKNQFSLKLSSVTAADTAVYYCARGQDSGDYDWYFDLWGRGTLVTVSS VL: SYELTQPPSVSVSPGQTASITCSGEKLGYKYVSWYQQKPGQSPVLVIYHDNKRPSGIPERFSGSNSGNTATLTISGTQAMDEADYYCQAGDSSAVFGGGTKLTVL"
–,26.1 pM,–,5600 pM,82 pM,no binding,685 pM,"3H8OP (antibody, V domains shown) VH: QVQLVESGGGVVQPGRSLRLSCAASGFTFSTYGMHWVRQAPGKGLEWVAVIWYDGSNKYYADSVKGRFTISRDNSKNTLYLQMNSLRAEDTAVYYCARDLYYYGSGSPFDYWGQGTLVTVSS VL: EIVMTQSPATLSVSPGERATLSCRASQSVSSNLAWYQQKPGQAPRLLIYGVSIRATGIPARFSGSGSGTEFTLTISSLQSEDFAVYYCQQYNNWPRPGFGGGTKVEIK"
